Tests used:
[1] = system: His-tagged recombinant E1 enzyme; assay: Influence of metal ions / reducing agent on dihydrodaidzein synthesis activity of E1 enzyme; type: biochemical, Lactococcus 20-92 strain; conditions: for influence of metal ions on the conversion activity from daidzein to dihydrodaidzein: 100 μl of 100 mM metal ion solution in 1000 μl, 37° C., 2 hours, HPLC (FIG. 26); for activation of E1 enzyme (dihydrodaidzein synthesizing enzyme activity): general statement in the description
Method: Using the His-tagged recombinant E1 enzyme ([…]) expressed in Escherichia coli, purified by Ni-Sepharose, as an enzyme source, the influence of metal ions on the conversion activity from daidzein to dihydrodaidzein was examined. Various metals (MnCl2.2H2O, FeSO4.7H2O, CaCl2.2H2O, Zn(CH3C00)2.2H2O, CoSO4.7H2O, MgSO4.7H2O, NiSO4.6H2O) were dissolved in distilled water to obtain a concentration of 100 mM. Using the metal ion solution, an enzyme reaction mixture of the composition below was prepared, and was reacted at 37° C. for 2 hours to measure the activity. [table] After incubation, 3 mL of ethyl acetate was added to the obtained enzyme reaction mixture for extraction. After drying, the extract was dissolved by the mobile phase (eluent). The dissolved product was analyzed by HPLC to measure the contents of daidzein and dihydrodaidzein in the enzyme reaction mixture.

dihydrodaidzein [2] = assay: Tetrahydrodaidzein biosynthesis activity in centrifuged supernatant of disrupted cell material and NADH or NADPH dependency (Example B2); type: biochemical, Lactococcus 20-92 strain; conditions: centrifuged supernatant of disrupted cells; 37° C., 2 hours; HPLC (FIG. 11)
Method: The frozen cells were thawed and centrifuged at 4° C. for 15 minutes (5,000×G). The pellet was used in the test below. First, the pellet (wet weight 2.7 g) was suspended in 10 ml of a 0.1 M phosphate-potassium solution containing 1 mM PMSF and 5 mM sodium hydrosulfite. After preheating at 37° C. for 5 minutes, lysozyme was added in an amount of 100 mg per gram of the pellet (wet weight) to cause a reaction at 37° C. for 1.5 hours. Then, an equivalent amount of 0.1 M dipotassium phosphate solution was added to the reaction mixture, and the mixture was vigorously agitated with a vortex mixer after adding zirconia-silica beads (3 ml). The cells were then disrupted with a sonicator (Branson Sonifier Cell Disruptor 200) (3 cycles of a 5-minute sonication and a 2-minute rest). The disrupted cell suspension was centrifuged at about 10,000×G for 15 minutes to obtain a supernatant, which was then used as an enzyme source. An enzyme reaction mixture of the composition below was prepared, and was incubated at 37° C. for 2 hours. After incubation, 5 mL of ethyl acetate was added to the enzyme reaction product for extraction. Then, the product was dried to prepare a sample for HPLC analysis. [table]

[3] = system: disrupted cell material of Lactococcus 20-92 strain; assay: Enzyme reaction with disrupted cell material of Lactococcus 20-92 strain as enzyme source (Example B1); type: biochemical; conditions: 10 μg/mL substrate, 2 mM NADPH, 2 mM NADH, 37° C., 2 hours
Method: The Lactococcus 20-92 strain cells preserved at −80° C. were quickly thawed. The cells were suspended by tapping, and centrifuged at 4° C. (8,000 rpm×5 min) using a centrifuge VC-960 (Taitec). After removing the supernatant, 0.1 M potassium phosphate buffer/1 mM PMSF (phenylmethanesulfonyl fluoride)/2 mM DTT (dithiothreitol)/5 mM sodium hydrosulfite (pH 7.0) were added to obtain a cell suspension. The cell suspension was placed in a 2 ml tube prepared to include zirconia-silica beads (about 0.8 mL, 0.1 mm, 1 lb; Wakenyaku Co., Ltd.), and the tube was charged with 0.1 M potassium phosphate solution/1 mM PMSF/2 mM DTT/5 mM sodium hydrosulfite (pH 7.0) to fill the tube almost completely. For disruption, the tube was closed and kept on ice, where a cycle of 6,500 rpm×20 sec centrifugation and ice-cooling was repeated four times using FastPrep®-FP100A (Thermo Electron Corporation). The resulting disrupted cell material was used as an enzyme source in an enzyme reaction.
A 1 mL enzyme reaction mixture of the composition below, containing 0.1 ml of the disrupted cell material obtained in (1) was prepared, and the mixture was incubated at 37° C. for 2 hours. After incubation, 3 mL of ethyl acetate was added to the resulting enzyme reaction product for extraction. The product was dried to prepare a sample for HPLC analysis. […]

Lactococcus 20-92 strain = assay: Equol biosynthetic activity of bacterial cell from tetrahydrodaidzein (Example C1); type: cell-based; conditions: 10 μg/mL in medium; 37° C., 18 hours, anaerobic; HPLC (FIG. 20)
Method: A Lactococcus 20-92 strain (FERM BP-10036) was inoculated in a tetrahydrodaidzein-containing amplification liquid medium (a modified GAM bouillon medium (NISSUI PHARMACEUTICAL CO., LTD.) to which cis- or trans-tetrahydrodaidzein (organically-synthesized by Otsuka Pharmaceutical Co., Ltd.: see Reference Example B1) was added in an amount of 10 μg/mL), and the culture was incubated at 37° C. for 18 hours under anaerobic conditions (using BBL Gas Pack systems). After incubation, 1 mL of the culture was immediately placed in a glass centrifuge tube with cap, and 3 mL of ethyl acetate was added thereto for extraction. The product was dried to prepare a sample for HPLC analysis. As the standard solution for HPLC analysis, a mixed solution of daidzein (2 μg/mL; Funakoshi Corporation), equol (2 μg/mL; Funakoshi Corporation), dihydrodaidzein (2 μg/mL; Trend Research Chemicals Inc.), cis-tetrahydrodaidzein and trans-tetrahydrodaidzein (2 μg/mL; both chemically-synthesized by Otsuka Pharmaceutical Co., Ltd.) was used.

tetrahydrodaidzein = assay: Enzyme property of E3 enzyme (equol synthesis using tetrahydrodaidzein as a substrate); type: biochemical
Method: Regarding polypeptides (Cb) and (Cc), the activity to synthesize equol using tetrahydrodaidzein as a substrate can be confirmed as follows. First, a polypeptide of interest is added to a substrate solution of the composition below at a concentration of 0.001 mg/mL. The solution is then incubated at 37° C. for 2 hours to check for the presence or absence of equol in the solution. The presence of equol in the solution after incubation is used as an indicator of the polypeptide's activity to synthesize equol using tetrahydrodaidzein as a substrate. Since E3 polypeptide has an enzyme activity to synthesize equol using tetrahydrodaidzein as a substrate, E3 polypeptide is also referred to as E3 enzyme. The optimal temperature of E3 enzyme is in the vicinity of about 23 to 37° C., and the optimal pH is 4.5.

daidzein = assay: Enzyme property of E1 enzyme (dihydrodaidzein synthesis using daidzein as a substrate); type: biochemical
Method: Regarding polypeptides (Ab) and (Ac), the activity to synthesize dihydrodaidzein using daidzein as a substrate can be confirmed as follows. First, a polypeptide of interest is added to a substrate solution of the composition below at a concentration of 0.001 mg/mL. The solution is then incubated at 37° C. for 2 hours to check for the presence or absence of dihydrodaidzein in the solution. The presence of dihydrodaidzein in the solution after incubation is used as an indicator of the polypeptide's activity to synthesize dihydrodaidzein using daidzein as a substrate.
Since E1 polypeptide has an enzyme activity to synthesize dihydrodaidzein using daidzein as a substrate, E1 polypeptide is also referred to as E1 enzyme. E1 enzyme is activated by the presence of a reducing agent such as Na2S2O4 and metal ions such as Fe^2+ and Mn^2+. […] The optimal temperature of E1 enzyme is in the vicinity of 30° C., and the optimal pH is 7.0.

dihydrodaidzein [4] = assay: Enzyme property of E2 enzyme (tetrahydrodaidzein synthesis using dihydrodaidzein as a substrate); type: biochemical
Method: Regarding polypeptides (Bb) and (Bc), the activity to synthesize tetrahydrodaidzein using dihydrodaidzein as a substrate can be confirmed as follows. First, a polypeptide of interest is added to a substrate solution of the composition below at a concentration of 0.001 mg/mL. The solution is then incubated at 37° C. for 2 hours to check for the presence or absence of tetrahydrodaidzein in the solution. The presence of tetrahydrodaidzein in the solution after incubation is used as an indicator of the polypeptide's activity to synthesize tetrahydrodaidzein using dihydrodaidzein as a substrate. Since E2 polypeptide has an enzyme activity to synthesize tetrahydrodaidzein using dihydrodaidzein as a substrate, E2 polypeptide is also referred to as E2 enzyme. […] The optimal temperature of E2 enzyme is in the vicinity of 37° C., and the optimal pH is 4.5.

Molecule: [Fe+2] [Fe^2+]
- influence of metal ions on the conversion activity from daidzein to dihydrodaidzein [1]: stimulated the activity
- activation of E1 enzyme (dihydrodaidzein synthesizing enzyme activity) [1]: activated

Molecule: [Mn+2] [Mn^2+]
- influence of metal ions on the conversion activity from daidzein to dihydrodaidzein [1]: stimulated the activity
- activation of E1 enzyme (dihydrodaidzein synthesizing enzyme activity) [1]: activated

Molecule: NC(=O)C1=CN([C@@H]2O[C@H](COP(=O)(O)OP(=O)(O)OC[C@H]3O[C@@H](n4cnc5c(N)ncnc54)[C@H](OP(=O)(O)O)[C@@H]3O)[C@@H](O)[C@H]2O)C=CC1 [NADPH]
- coenzyme dependency of the conversion of dihydrodaidzein into tetrahydrodaidzein (dihydrodaidzein [2]): much more strongly

Molecule: O=S([O-])S(=O)[O-].[Na+].[Na+] [Na2S2O4]
- activation of E1 enzyme (dihydrodaidzein synthesizing enzyme activity) [1]: activated

Molecule: Oc1ccc(C2COc3cc(O)ccc3C2O)cc1 (stereo not drawn) [cis-tetrahydrodaidzein]
- production of equol from tetrahydrodaidzein by enzyme reaction ([3]; HPLC (FIG. 10)): equol was produced
- equol biosynthesis from tetrahydrodaidzein by bacterial culture (Lactococcus 20-92 strain): activity to biosynthesize equol

Molecule: O=C1c2ccc(O)cc2OCC1c1ccc(O)cc1 (stereo not shown) [dihydrodaidzein]
- enzyme reaction product from dihydrodaidzein as a substrate ([3]; HPLC (FIG. 9)): production of trans-tetrahydrodaidzein

B1: E3 enzyme: polypeptide (SEQ ID NO: 13) having an activity to synthesize equol using tetrahydrodaidzein as a substrate (protein, listed as Lactococcus garvieae)
chain: MAEFDVEYDLVVVGGGASGKSAALIAAREGKRVVVLEKMPETGGLSMYAEGTAAFESSIQNELGTPRLSKYHFPTKQEGIEKFMGYSHQRANYDVVRAFVENSAETIDIYRDLGVVYKACDIAAEDDPNEVWTFHLPEGLGAHCQEVLLDAIQKLDVDIFTSTPAKELIIEDGAVVGVVAESDGEPLRVGGKAVILATGGMGSSPERIFKYSWFAPAAYNMNTLTPLQNVGDGLDLALSAGADPTYITTCPILAAGGRDMTMDSQVGGAGVNPGVWINKTGRRFAAESVAENIGDIGTYYGKQPGGVVWSILSQADIDRLVAEGSEIAIGEFVVYHKPMERLPIELEAHLESGLVKKAGSFEELAALIDVPVDTFVATMADYNEACEKGYDDAFMKKPQYLRPMVEGPFYAIPLATGTMGSAGGIRINGNMQVVDADYNAIPGLYAVGLDATGLYGDSYNMEVPGAANGFAHTSGRIAARHAISTM
- optimal pH of E3 enzyme (tetrahydrodaidzein): 4.5
- reverse reaction of E3 enzyme (tetrahydrodaidzein): synthesize tetrahydrodaidzein from equol

B2: E1 enzyme: polypeptide (SEQ ID NO: 1) having an activity to synthesize dihydrodaidzein using daidzein as a substrate (protein, listed as Lactococcus garvieae)
chain: MKNKFYPKTFERGYIGNLEVENRAIRMPMGTELGNPDGSPSWASLKAYAEAADGGTGIVFMDNAGVTQFHHVGLSLASDNYIGPMSVLAKTIKQHGAIPGLQIVHPGRDAAFVRGDDLISSSRIQWEPWYENGGAVPRELTIEEIHDFVGYFGDCALRAQTAGFEIVDVHAACGVLLSNFLSPRNNTRNDMYGGSLHNRARFLLEVIRDIKKKCPNLPLAIRLSGIDFEPDGITIEETCEVAKMCEAAGADAINITWGSHAEVINAAGLLSKHGANHVEAAKMIKDAVSIPTMLCGGIYSPEIGEKLLEDGVCDFIGIGKPALADPMWAKKAAEGRPEDIRPCIGCGVGCHDRGMLSGGVVQCAVNAALYKFDEPVYPQAEVPKKVIIIGAGPAGCEAAITAKKCGHDVTIYEKRKIGGVLKEATVSDSKEDLGRLITYYETQLKKEGIEVIYEEATADTVVAGGFDVAIVACGATVRNLNIDGQDDPSVVYAMDFLDNDCKSDADRVVVVGGGIVGAETALILAEERGKDVTITTRSPEFFVSGVMGIAYMVRLGMAGVTIKPSTQLVAVKDGKPMFAGPRGLETLDVDQTIISSGFVPTFNQFRAQIEEKCEDVRVIGIGDCKASRMVMDAVHEGYIAGCNL
- coenzyme requirement of E1 enzyme (daidzein): requires NADPH or NADH as a coenzyme
- optimal pH of E1 enzyme (daidzein): 7.0
- optimal temperature of E1 enzyme (daidzein): ~30 °C
- reverse reaction of E1 enzyme (daidzein): synthesize daidzein from dihydrodaidzein

B3: E2 enzyme: polypeptide (SEQ ID NO: 7) having an activity to synthesize tetrahydrodaidzein using dihydrodaidzein as a substrate (protein, listed as Lactococcus garvieae)
chain: MAQEVKVPKMPGAPVFGKWISPEESVGQRLKGKKILLTGTTKGVGRVTQELLCAHGAFVCGSGRTPGVAASVADELKAKGYQAAGMDVDLSDYDAVKKWVEECAELMGGIDVVINNASHPGMAPFGEMTPEIWNYGIKNELDLVYNVCNCAWPYLQKADGASIIITSSTVALQGSNSPQACHAACKGACLSLARQLAAEGGPFGIRCNSVTPGLVWTEAMSNIPKEMASGLVAAQTTQQAVDPMDIAYAYLFLASDESRQITAANIPVDGGCAGAVTGGMQGEIEV
- coenzyme requirement of E2 enzyme (dihydrodaidzein [4]): requires NADPH or NADH as a coenzyme
- optimal pH of E2 enzyme (dihydrodaidzein [4]): 4.5
- optimal temperature of E2 enzyme (dihydrodaidzein [4]): ~37 °C
- reverse reaction of E2 enzyme (dihydrodaidzein [4]): synthesize dihydrodaidzein from tetrahydrodaidzein
